Here are results for one molecule from article doi:10.1101/2022.12.23.521728 (bioRxiv, 2022).

The target in the assay is ATP synthase F1 α subunit of G. stearothermophilus FoF1 (G. stearothermophilus, UniProt P09219 1-502). Nature of the assay: cryo-EM structure.
Chain of ATP synthase F1 α subunit of G. stearothermophilus FoF1 (P09219 whole entry): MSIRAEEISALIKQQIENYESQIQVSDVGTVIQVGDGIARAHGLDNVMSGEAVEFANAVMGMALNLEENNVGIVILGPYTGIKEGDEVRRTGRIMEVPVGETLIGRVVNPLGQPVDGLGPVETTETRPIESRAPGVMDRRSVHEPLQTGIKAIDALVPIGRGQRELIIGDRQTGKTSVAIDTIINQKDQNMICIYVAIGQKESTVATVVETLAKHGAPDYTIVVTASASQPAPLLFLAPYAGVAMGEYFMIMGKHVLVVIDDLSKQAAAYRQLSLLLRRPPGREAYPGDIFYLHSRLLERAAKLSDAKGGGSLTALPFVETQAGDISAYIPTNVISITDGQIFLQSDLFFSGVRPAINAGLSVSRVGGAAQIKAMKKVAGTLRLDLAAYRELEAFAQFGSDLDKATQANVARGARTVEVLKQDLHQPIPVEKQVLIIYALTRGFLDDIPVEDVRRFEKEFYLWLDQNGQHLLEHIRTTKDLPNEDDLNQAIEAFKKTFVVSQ

B1: ATP synthase F1 γ subunit of G. stearothermophilus FoF1 (natural protein)
chain: ASLRDIKTRINATKKTSQITKAMEMVLTSKLNRAEKREIVRPYMEKIQEVVANVALAARASHPMLVSRPVKKTGYLVITSDRGLAGAYNSNVLRLVYQTIQKRHASPDEYAIIVIGRVGLSFFRKRNMPVILDITRLPDQPSFADIKEIARKTVGLFADGTFDELYMYYNHYVSAIQQEVTERKLLPLTDLAENKQRTVYEFEPSQEEILDVLLPQYAESLIYGALLDAKASEHAARMTAMKNATDNANELIRTLTLSYNRARQAAITQEITEIVAGANALQ
For B1, the binding result is reported as “binds”.
